One molecule from patent EP4592322A1 can be followed below.

For the assay, the target named is integrin alpha(IIb)beta(3) (UniProt P08514). The experiment in a line: cell-based or functional assay.

B1: trimucrin variant RR (protein)
chain: EAGEECDCGSPENPCCDAATCKLRPGAQCAEGLCCDQCRFKKKRTICRRAKGDRRDDRCTGQSADCPRNRLYG
As to B1, the IC50: platelet aggregation is 52.5 nM and the Ratio (RR/corresponding protein) of IC50 for platelet aggregation (ratio (RR/corresponding protein)) stood at 1.
